Measurements as given in the supplement of paper PMC10724198.
± gives the standard deviation of the averaged measurements.

Tested on: Saccharomyces cerevisiae
Assay: protein stability index of tFT-peptide fusion (C-terminal peptide) (PSI (0-1 scale)); higher = more stable (slower turnover)
Details: genetic background: wild type; temperature: 30 C
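Further: PSI is a weighted mean of sequencing reads over stability bins, variants kept only with over 10 reads, mCherry proximal and sfGFP distal, peptide attached via GGGS linker.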

Sequence | protein stability index
LMRSFLHFHLCL | 0.632 ± 0.01
KSVQEPTPRKYR | 0.674 ± 0.026
LPVDPDTIIVVK | 0.663 ± 0.019
NTNPVHLKTHQT | 0.713 ± 0.011
RCFLFSPCWAFS | 0.5889 ± 0.002
RAASLVSCSLIL | 0.672 ± 0.024
WPVPPASYPALS | 0.728 ± 0.14
PPIALTPRTPAP | 0.747 ± 0.097
SLFSFLPRLYSH | 0.627 ± 0.023
GRGEKKKGAKKI | 0.728 ± 0.028
TRGTRGWGSVVG | 0.735 ± 0.018
REKARNEKRRKT | 0.651 ± 0.0075
ILCFSLESPRYH | 0.6991 ± 0.0022
PPSPHLVPYYLP | 0.677 ± 0.014
LARTSVACEGLG | 0.703 ± 0.045
VFHSSTRDSFVS | 0.751 ± 0.066
PLAPYPPLPPPP | 0.69 ± 0.027
CLGLVSNCGLYV | 0.674 ± 0.041
PPPPPPPPAPFP | 0.687 ± 0.056
VAASGEVVPLMA | 0.604 ± 0.046
SPPPLRFPPPPP | 0.763 ± 0.13

Sequence | protein stability index
EASSRITFGLII | 0.698 ± 0.041
SRMRRGCTGCEC | 0.671 ± 0.061
DVGIVPGVFWWV | 0.738 ± 0.054
PCSVDKAGSTKK | 0.606 ± 0.014
DYRTLGPAPDKS | 0.74 ± 0.035
QFQVWGAPGLKR | 0.711 ± 0.12
RRNPTCPSGTQK | 0.7 ± 0.021
IVEKAVAKGIKE | 0.6767 ± 0.005
LPNLCRLISFGS | 0.646 ± 0.036
KSVPLCSLGTTG | 0.6726 ± 0.0036
VTKRSKKNPTNN | 0.691 ± 0.018
LSGPPVSVQRSF | 0.594 ± 0.03
PSPSAPPPLSPL | 0.546 ± 0.052
FLPPYSLPTPPF | 0.699 ± 0.03
SRYERLFSDNRG | 0.718 ± 0.019
RKRSRQLNRQLK | 0.603 ± 0.0074
IILHLTRPGLAL | 0.673 ± 0.013
VPPPRLPQPLFP | 0.717 ± 0.052
PPPPRPSPSIYP | 0.732 ± 0.018
GGSLPAHPRNPL | 0.701 ± 0.027
STELQKMPQIEY | 0.722 ± 0.11

Sequence | protein stability index
WWGSGGREPGGS | 0.739 ± 0.05
VLGSSSKLGSLS | 0.647 ± 0.025
RKNYRISYKLLD | 0.715 ± 0.02
CPPPPPPPASPH | 0.698 ± 0.074
PPPPPPPASLLP | 0.755 ± 0.056
IVRTDTKPYEQS | 0.587 ± 0.013
RGSWRGLADSGV | 0.676 ± 0.08
SLAGLLPCRLTP | 0.621 ± 0.023
LPPLLAPPVSPL | 0.698 ± 0.039
PPPPPHTPPPYP | 0.766 ± 0.05
PSSCSPPPSSPS | 0.692 ± 0.064
HPSRWPSPRAIL | 0.684 ± 0.051
CDSRLSGVFKFG | 0.6816 ± 0.0026
RVLWGTESFIDL | 0.7383 ± 0.0048
HIYHIRFANKRG | 0.657 ± 0.013
LRLLCRTRCYRS | 0.666 ± 0.019
PQRTPPRPNKPP | 0.556 ± 0.013
TNGHIVRLGRRV | 0.63 ± 0.011
EPNSPTYLSMLI | 0.637 ± 0.018
KTQKYEIKNLKK | 0.581 ± 0.082
TNYKIKDDRLHR | 0.699 ± 0.014

Sequence | protein stability index
RCLSRLSALGTD | 0.624 ± 0.076
ASPPPEVCLSHR | 0.682 ± 0.0092
PPSLPPPPPVHP | 0.648 ± 0.034
VLALPSSPLLPS | 0.643 ± 0.1
TSGLSSAGSRSL | 0.647 ± 0.044
VSFWSVFSWLSG | 0.665 ± 0.014
VKTIRVTKSVGD | 0.6941 ± 0.0057
PRALPSPPPPPP | 0.661 ± 0.13
VLSSASRGSRCL | 0.707 ± 0.17
CIFSMLLPPFSL | 0.687 ± 0.0091
SLLLPPRPPSPS | 0.672 ± 0.017
CAVGPQSSSCPR | 0.56 ± 0.03
CVRPSFMSRSLR | 0.719 ± 0.064
VGFGFVRSLLVG | 0.6151 ± 0.005
LADFLGVSLLAV | 0.5695 ± 0.0031
TWMRIRLFRFIP | 0.5744 ± 0.0011
TINSHNYKTKTP | 0.664 ± 0.021
VGVGNRRWGGGV | 0.679 ± 0.014
